{
  "source": "paper PMC5507636",
  "about": "(Science Advances, 2017)",
  "binders": {"B1": {"name": "anti-CRISPR protein AcrIIA4 (natural protein)", "chain": "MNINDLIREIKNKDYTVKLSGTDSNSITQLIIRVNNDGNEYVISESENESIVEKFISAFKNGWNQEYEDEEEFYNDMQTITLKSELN"}},
  "target": "Streptococcus pyogenes Cas9 (Streptococcus pyogenes, UniProt Q99ZW2)",
  "sequence (Q99ZW2 whole entry)": "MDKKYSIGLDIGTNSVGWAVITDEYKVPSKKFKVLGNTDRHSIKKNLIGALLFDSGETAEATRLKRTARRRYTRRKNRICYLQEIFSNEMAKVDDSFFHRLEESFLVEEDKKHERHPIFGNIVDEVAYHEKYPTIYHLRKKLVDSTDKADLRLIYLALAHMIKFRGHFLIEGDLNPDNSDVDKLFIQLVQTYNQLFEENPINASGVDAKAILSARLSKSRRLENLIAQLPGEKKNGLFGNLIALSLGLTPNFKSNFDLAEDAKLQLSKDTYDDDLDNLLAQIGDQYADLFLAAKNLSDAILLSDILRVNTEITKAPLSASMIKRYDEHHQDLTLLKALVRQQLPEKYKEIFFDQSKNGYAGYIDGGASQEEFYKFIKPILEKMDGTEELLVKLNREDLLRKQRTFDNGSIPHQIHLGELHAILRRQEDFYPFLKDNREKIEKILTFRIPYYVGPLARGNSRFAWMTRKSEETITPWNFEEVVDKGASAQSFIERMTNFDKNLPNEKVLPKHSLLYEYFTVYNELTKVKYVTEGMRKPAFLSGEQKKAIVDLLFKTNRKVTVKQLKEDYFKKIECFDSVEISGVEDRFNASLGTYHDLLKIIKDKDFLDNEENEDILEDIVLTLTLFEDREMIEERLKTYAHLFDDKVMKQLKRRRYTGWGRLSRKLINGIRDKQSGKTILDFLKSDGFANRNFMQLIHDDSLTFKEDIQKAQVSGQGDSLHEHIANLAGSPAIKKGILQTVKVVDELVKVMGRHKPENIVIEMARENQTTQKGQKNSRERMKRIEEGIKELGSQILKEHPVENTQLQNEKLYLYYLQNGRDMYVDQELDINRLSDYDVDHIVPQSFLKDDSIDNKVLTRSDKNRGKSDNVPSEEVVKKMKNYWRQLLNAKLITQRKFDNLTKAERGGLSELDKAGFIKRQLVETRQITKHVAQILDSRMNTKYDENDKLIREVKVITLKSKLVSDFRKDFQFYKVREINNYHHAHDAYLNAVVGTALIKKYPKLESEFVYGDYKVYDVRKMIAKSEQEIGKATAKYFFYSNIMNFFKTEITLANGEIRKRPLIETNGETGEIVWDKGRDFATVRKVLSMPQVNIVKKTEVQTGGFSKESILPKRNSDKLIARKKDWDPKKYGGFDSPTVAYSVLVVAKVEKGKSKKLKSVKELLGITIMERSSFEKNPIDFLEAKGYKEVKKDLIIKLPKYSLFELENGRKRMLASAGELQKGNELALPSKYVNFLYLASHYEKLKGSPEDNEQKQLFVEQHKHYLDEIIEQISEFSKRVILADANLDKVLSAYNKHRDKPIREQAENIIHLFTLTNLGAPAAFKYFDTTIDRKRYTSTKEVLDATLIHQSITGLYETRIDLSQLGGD",
  "test": "cryo-EM structure",
  "data": [
    {"binder": "B1", "values": [
      {"measurement": "stoichiometry N", "result": 1}
    ]}
  ]
}
